The supplement of paper PMC10126150
± gives the standard deviation of the averaged measurements.

Tested on: ATP
Experiment: switch fluorescence ratio, 500 uM ATP over buffer (Cy3 cluster intensity, sum of 5 cycles each) (fold (ratio)); higher = stronger signal-on switching upon ATP binding; sequences stand for … in TCGTCGGCAGCGTCAGATGTGTATAAGAGACAGTTTTTTTTTTTTTTTTTTTTTTTTT…TC
Conditions: aptamer strand: ATP DNA aptamer (quencher-CACCTGGGGGAGTATTGCGGAGGAAGG + anchor), 100 nM annealed; ATP concentration: 500 uM
Procedure, shortened: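 The fluorescence ratio divides summed target-cycle Cy3 intensity by summed buffer-cycle Cy3 intensity for each cluster and is averaged per switch-domain sequence. Cy3-labelled switching-strand clusters on a modified Illumina MiSeq flow-cell were annealed to 100 nM quencher-labelled ATP aptamer, then imaged in selection buffer and again after 15 min with 500 uM ATP at 22 °C. Five such cycles were run, with NaOH stripping and re-annealing between them, and clusters outside 100-1000 RFU were excluded.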
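Note: ATP exposure 15 min at 22 °C before imaging.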

Sequence	switch fluorescence ratio
CCGGTTATAA	1.278 ± 0.009
CAACTGGTAT	1.17 ± 0.26
CGTCTTTTGG	1.02 ± 0.025
GAGGGGATGA	1.01 ± 0.031
AAACTCGGAC	1.143 ± 0.0053
AGTACTAACT	1.05 ± 0.048
ATAGGGGGCA	0.98 ± 0.023
TTCGAAATT	1.02 ± 0.035
ATGGCGATCA	0.999 ± 0.0078
ATTCCTTTTT	0.9996 ± 0.0094
GAACCAGTGC	1.23 ± 0.083
GAGAGGGCAG	0.9869 ± 0.0072
TTTGAATTTA	1 ± 0.039
ACGCCGCGTT	1.42 ± 0.032
CGGTTTTTTT	0.978 ± 0.016
CTTATAGTAG	0.9847 ± 0.0066
TCGAGGTATA	2.94 ± 2.6
TTAAGCTCGG	0.989 ± 0.037
TGGGTCATTT	0.99 ± 0.034
TCGGTATGAC	1.07 ± 0.029
AGGGGTATCT	0.9739 ± 0.007
ATGTTAGTCG	1.01 ± 0.014
AAATTGATAT	1.02 ± 0.025
ACCGTATGAC	1.05 ± 0.068
GAGTGAGGTT	0.955 ± 0.046

Sequence	switch fluorescence ratio
GGAAAAGGGA	1.01 ± 0.049
TACTCGCCGT	1.053 ± 0.0064
GTGGCAACAA	0.984 ± 0.035
GACAGATCCC	0.982 ± 0.014
TATGGAGTGG	1 ± 0.039
GCCTACATTA	0.997 ± 0.022
AGTATCTTCG	0.9923 ± 0.0027
CCATTTTTTA	0.9825 ± 0.0097
TTTTCGCCGA	1.03 ± 0.057
CCTCACCCTT	1.13 ± 0.013
ATAATATTGT	0.999 ± 0.0022
TTTCTGTGCG	1.001 ± 0.0072
TAGGATACGG	0.995 ± 0.012
CTTTCGTCTG	1.01 ± 0.035
GAGCAGGGGG	1.01 ± 0.042
AGTAGAGAAT	1.04 ± 0.017
TGAACGGGTG	1.04 ± 0.068
ATTTTGGCTT	0.963 ± 0.037
CCTATTCCGG	1.05 ± 0.03
AGTGTGTTGC	1.023 ± 0.0095
GCCCGGTCGG	0.953 ± 0.017
GAGAAGCTAT	0.987 ± 0.015
TTATTTTTCG	1.02 ± 0.018
ATTGGGGTG	1.03 ± 0.11
CGCTAGATTT	0.996 ± 0.031

Sequence	switch fluorescence ratio
GATTTTTCAG	1.019 ± 0.006
AGGGGTGCGG	1.04 ± 0.08
AAAATAAAGG	0.976 ± 0.023
GTGTTTGCTA	1.02 ± 0.032
TTGGGCAACG	1.06 ± 0.022
ATATGATTGA	0.9686 ± 0.0044
GTAAAAGGGT	1 ± 0.02
CGAGCATTTT	1.14 ± 0.017
ATTAATCTT	1.011 ± 0.0016
ACGAGGATTG	1.042 ± 0.0021
TTGCTGGGG	0.972 ± 0.037
TAGCTTGTCA	0.9884 ± 0.0065
ACCTTTAGTG	1.03 ± 0.019
TTAAGCGTAG	1.01 ± 0.013
AACCGCGATG	2.25 ± 0.1
GTTAACTCCA	1.02 ± 0.022
TCACAGCCG	1.046 ± 0.0085
TGGGGCTAGG	0.993 ± 0.018
CGCGAGCGTT	0.995 ± 0.049
CGGTTTTGGC	0.998 ± 0.019
CGTTTGTGGG	0.984 ± 0.034
TTTTTTGAGG	0.981 ± 0.025
GGAGAATATG	1.038 ± 0.0095
TCTTTAGGGA	1.02 ± 0.054
TTGGAAAGTG	1.05 ± 0.13

Sequence	switch fluorescence ratio
TCCCACGGCC	1.083 ± 0.0017
AAGGGTGGTA	0.981 ± 0.016
GGAACCTTTT	1.04 ± 0.041
AAGTTAAAAG	0.975 ± 0.012
GGTTATTCGG	0.993 ± 0.053
CATGATAGGG	1.01 ± 0.031
GACTTGGTGC	1.06 ± 0.023
CGTTGGGTTT	1.03 ± 0.054
TACGGCGGGG	1.02 ± 0.047
GTTGGGTTGG	1 ± 0.033
AAGTTGGTGT	1.02 ± 0.043
ATCACGATGG	1.03 ± 0.019
TTAGGTCATG	0.9877 ± 0.0034
ACGTGGGGCT	1.05 ± 0.027
TCTTAAGGGA	0.979 ± 0.025
TTTTTGGTGG	1 ± 0.032
TGGGTTTGGC	1.02 ± 0.023
TTACGCGAAA	2.57 ± 2.1
GGTGAAGGTA	0.929 ± 0.045
CGTAGGTTTT	1 ± 0.067
CGGGGTTGAA	0.998 ± 0.03
GGTAAAGGTA	1 ± 0.029
AACTATAATG	0.997 ± 0.044
CGTTAATTAC	1.38 ± 0.036
TGGTGGTTCG	0.975 ± 0.061

Sequence	switch fluorescence ratio
AGTTATTTGG	1 ± 0.0047
GAGGGATAGC	0.991 ± 0.025
CGTTTGTGAG	1 ± 0.0092
CCTGTGTCCG	1.12 ± 0.052
TATTTTACCA	1.017 ± 0.0061
TGGGACGGGG	0.984 ± 0.025
GGCTATTGAT	1.004 ± 0.0073
CCGCTATTGT	2.77 ± 0.4
GTTCGGGGGT	0.986 ± 0.025
TTGGGGCTTG	0.998 ± 0.012
TAGGGGTAGG	1.02 ± 0.021
GTTGTCCTTG	1.01 ± 0.015
TAGTTTTGGA	0.988 ± 0.01
TGATTTAGGC	0.9803 ± 0.009
GGGGTAAGCT	0.998 ± 0.023
GCATCGCCAT	1.02 ± 0.029
TTAATAGTTG	0.97177 ± 0.00065
AGCCGGTTCC	1.014 ± 0.0092
ATTGATGGGC	0.9644 ± 0.0037
GTCGGGAGTG	0.986 ± 0.065
GGGTTAGAGG	0.9959 ± 0.0071
TATAATCGA	1.03 ± 0.067
TTATATTAGA	0.971 ± 0.0099
TGACTGAAGG	0.9503 ± 0.0065
TATTCGGGAG	1.0052 ± 0.00035

Sequence	switch fluorescence ratio
CATCGTGTGT	0.972 ± 0.011
TTCGGGAAAA	0.982 ± 0.016
TGGGAATGGC	0.9555 ± 0.0094
TACTCTGGTG	1.43 ± 0.019
CTGTGTGCAC	1 ± 0.066
GCATCGTCGG	1.04 ± 0.058
TGACGGGGGG	1.06 ± 0.12
TAAGGTACTG	0.984 ± 0.086
CAGTTTCGTT	1.02 ± 0.037
CTGGCTGGTT	1.01 ± 0.013
AACCAGTGCG	1.08 ± 0.032
GGGATTCGTC	0.994 ± 0.02
GATGCAGTGT	1.05 ± 0.014
CGGCCCGTAG	1.02 ± 0.036
TCATTAATTT	0.9873 ± 0.0086
TAAACGGGTA	1.04 ± 0.02
TTTTTGTTTT	1 ± 0.035
ATTAAGAGGT	1.034 ± 0.0075
CGGATATTGT	0.995 ± 0.028
ATGTAACCGT	1.01 ± 0.012
TCGGCCAGGT	1.5 ± 0.046
GGGGTGGAAT	1.03 ± 0.012
CAGGTTTGTG	1.01 ± 0.018
TTAAGCACTT	1.19 ± 0.062
GATGAAGGTG	1.28 ± 0.061

Sequence	switch fluorescence ratio
TACCATGGCG	0.9983 ± 0.0058
AGTCAGGCGA	1.01 ± 0.078
GTTATTTACG	1.02 ± 0.033
GAGGAAAGCA	0.9815 ± 0.0056
GGAACTCGCT	1.02 ± 0.11
GCGATAAATT	0.983 ± 0.045
GTGGTCGGTA	0.952 ± 0.084
ATCAGGGGTA	1.26 ± 0.34
CTATAGGTAA	0.996 ± 0.019
CCGGGCCATC	2.3 ± 0.038
TAAACGCCTC	1.08 ± 0.058
CAGTGATAAA	1.008 ± 0.0066
AGGGGTATCG	1 ± 0.029
ATGTATTCAG	0.96694 ± 0.00025
GGCGAAAGGA	1 ± 0.041
TCGCGGTCGG	0.997 ± 0.015
AGGAAGGCAC	1.05 ± 0.016
AACATCGTTT	1.02 ± 0.019
CGAATAGGCG	0.976 ± 0.048
CCGGTGTGAG	1.04 ± 0.021
CGTTAATCTT	0.995 ± 0.049
TTATGGGGAG	1.005 ± 0.0034
AGTAACCTTG	1.02 ± 0.022
TAGACGGATT	1.04 ± 0.066
GGCTGAGCCT	0.991 ± 0.038

Sequence	switch fluorescence ratio
CAATTTATAT	0.994 ± 0.019
TCACGTTTAG	1.03 ± 0.011
GTGGATAGGT	1.01 ± 0.045
TAGGGGGTAA	0.997 ± 0.039
GGGTTGATTT	0.958 ± 0.053
TTTAGGTGCA	1.16 ± 0.14
TTGCTATTTT	1 ± 0.028
GCATAACAGG	1.04 ± 0.045
CCAGCTGCGG	1.01 ± 0.022
TTTTCTTATG	0.96 ± 0.013
TGCGGGCCAT	1.027 ± 0.0067
GTATTAGGAA	0.985 ± 0.031
GGGGGCGAAT	1.01 ± 0.011
GACGTGTAGT	1.02 ± 0.025
AGAAATTGGA	1.02 ± 0.044
ACTCTGGGGT	1.03 ± 0.015
GGTGGCCCAA	1.001 ± 0.0059
CGACTTGAAA	1.04 ± 0.041
TAATGCGTTT	0.98 ± 0.0039
TGAACTTGAC	1.14 ± 0.052
AACTTTAGGG	0.997 ± 0.039
TTCTACTGAT	1.32 ± 0.39
TGCGCGAAAT	0.995 ± 0.0021
AATGACGGTA	1.0565 ± 0.00075
AACGACTTGT	1.01 ± 0.037
